The text below walks through data of the domain aggregation screens of Martell et al. (2025).

A short description of this data set: soluble fraction after stress (log2 fold change); higher = more stays soluble; pooled small domains, quantitative proteomics. The note with it: stress: pH 4. The essentials: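 Pooled custom libraries of small protein domains were stressed at pH 4 and then measured by high-throughput quantitative proteomics. The fold change in the amount of each domain that stays soluble after the acid stress serves as a measure of aggregation propensity. Fold changes are given on a log2 scale, and higher values mean more of the domain stayed soluble.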
For “HMKSKHENLIDGLLKMISSMKPHDRLTPERQLAEEWAVSRMTLRRALEVLQFQGKIYTVPSSGLFVAEPK”, the “soluble fraction (log2)” value was -0.677. With “HMKSKPRVPFGSLVEMGILKPGSILFDPKGKIKTKVMVDGSIKYKETEGSIHKVAAQIMGTESYNGWTYW” the figure was -0.0629; with “HMKSLDDVISKFRPTGSENKIDFRKRVISEIHAQGFFKIKGSVNHVAKALGVTRYTVYNYLDKLND”, not below 0.43.

In the case of “HMKSLLTHAEEFVRNNNGRWMLAETSSKESYSSKQNFYLRNNYSIISEIRDFYSVGDNLLVFGKFFT”, the “soluble fraction (log2)” value is -0.242.

“HMKSNESAELGERMLNKALLALHTDSSKISDTQWQKLLRDYGAKNKQEILTDIGLGKRLNVMVAHQLMAMG”: the “soluble fraction (log2)” value was found to be 0.0391. As for “HMKSNIGENIRQLREKREMSVERVARMLEVKPATVIGWESGRELPEPAELGLLAKLFDVTVEELN”, the “soluble fraction (log2)” value is -0.0738. Consider “HMKSNKEKIYDFIQMHDTAEKEGGVSTTYIAQALSLQRTNVSSLLNALVEEGRIHKSNGRPVLYSIAG”, for which the “soluble fraction (log2)” value was 0.178. With “HMKSPAQAAALKKLWAAIKQNEQGEVVEVLFHNRKLTDAGLVHLKGLANLQTLNLYDTKITGAGLVHL”, the “soluble fraction (log2)” value is -0.0712.

As for “HMKSVLDDVAGLGPVRKKALLKAMGGFTRLRAASLDDILAVRAVPEEVAREVFAVLAQYNSVRNNDISE”, the “soluble fraction (log2)” value is not below 0.43. With “HMKSVTAPLPGTVTQILVKVGDAVKAGDTVLMLEAMKMENSITAEAAGTVKAIRVEKGAQVQGGDVLIEM” the figure was -0.594; with “HMKTAAKVLGESGGKPVTVQSGRYGPYVQLGTIRATLPKDLDQEAVTLDKALELIDAKAERSGK”, -0.0034; with “HMKTDFEIDITVKASSLRVVASPGGDELVGTVTRGDRVTQLATPKDGWILIKMTDGRLGYVPESLLLFP”, -0.89. As to “HMKTEIGQAMRKLRKAKKMTQDTLAEKLGVAPANISRYEKGQQGIEVDKLPTLADALGVSVPEFFAIASG”, the “soluble fraction (log2)” value is -0.142. With “HMKTELAYDFHSRIRDARIREGLSQVDLAKRMNEKIAVIQKAENGIRPTDSLIAKFSKALSVELYVE” the figure was -0.604; with “HMKTGIIYGVNGPVIYLKGDTGFKISEMVYVGPEKLVGEVIGLKKHMTTVQVFEETTGLKPGETVIGTGDA”, -0.0122.

For “HMKTGTVQDFIAKYGMSSKSPSSWFNSLTQIQKAEAKALKAQSGLTWNEWYEKNIYNGDGSNL”, the “soluble fraction (log2)” value was -0.119. With “HMKTKHISIAEGMSLYTRDRSPFYWGYLNIEGVIHKKSLKTDVVDEAIKLLSIWKNELLNSITK” the figure was -0.414; with “HMKTKKYKGVYKDSKGKIYFQIELGVDPITGKRIQKKGRKNQQGLPFNSFKEAYEEILRLKHEFVNSTIN”, 0.00285; with “HMKTKTAPPDSIPPAWLKESATLRPDLNQAQIKASAEVFLDHHRAKGTTLADWRPAWRNWIRRERA”, 0.0552. As for “HMKTLDAFFDQARDAYKKLKKDGDIDNLKVLRNQLQTVRETQGDAVRKKSKEEYRRLVDIIDDIDGLLAAF”, the “soluble fraction (log2)” value was -0.154. Regarding “HMKTLSKEDIGFLSDEAVGEMRKAVANGEMLELRALIDQVGEKNPIVAEKLLTLVKQYDYENLNRVLE”, the “soluble fraction (log2)” value was -0.802. The result for “HMKTPAPRETILSLFRQTPDGFVSGERISDELGVSRTAVWKHIRNLRQAGYQIEAIPSRGYQLQQS” reads -0.0693; that for “HMKTQFGTIVKQLRERKGMDQKQLGEIVGVSDKTVSSWEINRTEPKMGIVQQLADYFGVSTDYLIKG”, 0.00995; that for “HMKTRQVTVRNGRIEIFDKRFSTERLVFTAANLPVLEREGEVFTAGIPDSRDFINLWARDGSFAGSVPRV”, -1.51. With “HMKTTSYAKLLRFLRTERDLSQITVAKQLGLSRASYLALEHGSRELSLSEAVKVTTLYGIRIDDLIVNH” the figure was -0.899; with “HMKTTVEVSPIARPGAVASGSVKFGSGVTAEWMLDQYGRLGLDKPTGKPTEQDIKEFQIELQKAL”, 0.122; with “HMKVDLSEEEKTILELLKKESPQELETIKAASTLSNKKWDKAIKGLRKHNLAKVNKTDDGLFVELE”, 0.105. For the sequence “HMKVDRLISIVLVLLDKNRISAQELADMFEVSLRTIYRDIDAIELAGIPIRSTSGVGGGFEIMPNY”, the “soluble fraction (log2)” value is -1.19. In the case of “HMKVKGVYQLDNGYWGYRFTMLVNGKTVSQRRVKDESGNPFKTEKKAEKARLVAMAEEQTKANK”, the “soluble fraction (log2)” value came to 0.125. The result for “HMKVMTNAELGRIIKEARIARRMTQSEVVGDFITRNMLSQIENGNAAPSMRTLQYLMDVLDIHINIE” reads -0.751; that for “HMKVNIGDQVYNQMKDQIMSGVWVPGEKIPSENQLMEVFGVSRGTVRQAIQKLSAVGLLETRRGEGSYVGQ”, -0.0128; that for “HMKVQLGMNTREVRGIMGKPFSEDTFVEGEKRVDVLHYKEAVRVKTQGFILTTSLRFENDSLTAI”, -1.02. As to “HMKVRVFIERSNDGYSAYMPDDNNLPFGLTGDGKTAQEAMQDFLLARDEMKEFFIEEGKEFPEVEFDFS”, the “soluble fraction (log2)” value was -1.49.

Consider “HMKVSAEEQNILDALQAAGGYLPFHDKSNPEEIYEAFGISKKTFKMIIGSLYKQQKINLTQTGIQLII”, for which the “soluble fraction (log2)” value was -0.637.

With “HMKVSDPEAIKLIEQAQVKVIPFLDISEAADIQIALEELKNSEGTGQTDSAKVRLRNLLSPFSYL”, the “soluble fraction (log2)” value is -1.12. With “HMKVSFEIEINGVTKSINSINEAKEAISELQDIMDNSTFGSEEFKNAATQIDKLQNKLVEALDK” the figure was -1.4; with “HMKVSVDLSMFEDDQTADRNAAVAWVVDELGAGGVDRTILMQLQSTGWSAEQSRAILDLASAGR”, -0.324; with “HMKVTGSVQKKKGYYYIVVRLPTKNGTQYEQKQKWFNTKLKATPRNKTAAQVILAEKLTEYGGIV”, not below 0.43. The result for “HMKVWYAGINAQRVGPMTLGAMEQQIRYGRVLFSTLIWKSPMPQWVPAGDVPELRRLLDEHMLNQMP” reads -0.676; that for “HMKYFDRDLINYIQKTLAGKKIDFHEKIVPLIIELAGSDIRRVDEIIDMAEYSGKGMHVSEEMIRELAGDV”, -1.72. The result for “HMKYKTKRDMILALMKKEILSGELKPRTRLLISEVASRYEVSEIPVREAFQVLIQEDLVRSTGAGFEVT” reads 0.233; that for “HMKYPVYLQLADLIERKINKNEYPLGSKIPSERELIDAFGISRMTVRKAIEVLIEKGLLTRQHGKGTYVSQ”, 0.182; that for “HMKYSNDFDKVSYSLGLSIASNLISSGVKTLNAEAFNDGLATVFEGRMPEINPDEANKILQNFFEGLQKE”, -0.632. Regarding “HMKYSQAMIAQIIKHFHLPNNTVVTGEDVDAILLRSVDGGDGIYGGDVVSIWKYYKKQNDIQEIVT”, the “soluble fraction (log2)” value was -0.764. Regarding “HMLAEEDRRRAERPGLDGNAVMVHLGIGPGRHVGEALAFLLEVRRSEGDLAVAELKSRIDAWWADR”, the “soluble fraction (log2)” value is -1.49. As for “HMLAERKERDKAELKELILDAAKKILLKNGQEGLSIRKIATTVEYSPATIYLYFKDKDEILHELMEMG”, the “soluble fraction (log2)” value is 0.151. With “HMLAHSEFGARLRETRKRLGLSQSELGGDRYSGSYISHLESGRRAASAEVIEFLAGRLGVEVEELGM” the figure was -1.2; with “HMLAIELDDKPGSLLRALEIFAKRNLNIEYMYAFTEKRGDKAVMIFKFSDIETAKKSLLEEGFN”, -1.13; with “HMLAKNDSGLNNHTFNAIRDALLEALADGPAEAKKLTENISFPSDKIITVIRFLADHDDRFSLEDGILSLT”, -0.846. With “HMLAKYEIIKQDIIQMIEEKKFKPGDKIYSEGELKKIYNVSSTTVVRALQDLVLSGYLIRKQGEGTYVRK”, the “soluble fraction (log2)” value was 0.222. As for “HMLASDYEEELSVLIKMSHKIAAGDDSLMDDFNDRVTMFESSYPINKATKDLTPVLERVNKFQT”, the “soluble fraction (log2)” value is -0.295. As to “HMLDDDAGMIQAILRKAPGHYLPLHDKSDPASIQAQLGISKAQFKRAVGTLMKQGLIRQVKGDGLYLTQ”, the “soluble fraction (log2)” value was 0.125. In the case of “HMLDDESLHFFYKKDGWEYWMKTTTENNYPIQLRKKIGDEKVQEYWNGDKEKKKIGASYFGV”, the “soluble fraction (log2)” value is -0.6. On to “HMLDFLVSKYESELLADLLWSLGVVAVEEREATGDLVTLRTSLGDDHSFTRELVQEKFPDVIVSTAL”, for which the “soluble fraction (log2)” value is -2.23. The result for “HMLDIVVGSTGYALGEITDHSGTVRVNGDTWTARLVDAAGPVEDGDRVEVYAVEGTTLLVYPS” reads 0.128; that for “HMLDKEDNANAGKTLLERELSRAHLSDVEHRELAQRLHLASEQELYIKIGSGDLSIIQALNRAKEFKDT”, -0.8. Take “HMLDKRSHAKKVLDAIEAVILGRATNDQLAYTINGRSLQKTPLPDLLRLRSQYQAEYQRELRAERIRKG”: the “soluble fraction (log2)” value was not below 0.43. Take “HMLDLPVKTINGKQYYYYTVKKGDTVYSLITRFGITRSDLVESNPAAADVLKTGDTLYFAVDKFG”: the “soluble fraction (log2)” value is 0.0813. With “HMLDLYYDSEDKLLIDMGTGEVIRSFADDKRSLVFDAQAKILFDEDSGDIVYSSYFDKLITDKLASKS” the figure was -1.51. With “HMLDPIQEGKKMLNSRLSGFGITPNTRLMNKLLAAYNISSREEFYGRIGAGIEDLSTLREVLLKGT” the figure was -0.182; with “HMLDQSYYETANEIISRYPLEEKSLIPIIQDIQATYRYLPPDLLDYVAKKIGITETKAYSVASFYENFSF”, -1.09. With “HMLDRNKLNELDAYIESFEDKPSHLIMILHRAQGLFGYLPKELQIYVAEKTGVPAAKVYGVVTFYSFFTMK” the figure was -0.737; with “HMLEDDTVNTAEGIKIGDSFAAVTKAYGTDYVAAGNTYAYSKDKMTLTFVMNNDKVSTISYSLLTS”, -0.412; with “HMLEDYFKEEEYTEVLKIPKEYIKGFQYYLIEDAEFVNALRAKNKTMTLFLAKKLASDYIEIIRREQ”, -1.31.

Regarding “HMLEIGRYNTLTVLRKVDFGYYLDGLDYGDILMPAKYAATELEAGDEVDVFIYLDSSEKLIATTETPIAQ”, the “soluble fraction (log2)” value was -1.58.

With “HMLEIQENFQNILKRMELSLSPLERRVLALYLSGYERSEIPEKTGIPLKTFDNALHRVRNKMK”, the “soluble fraction (log2)” value was -0.711. The result for “HMLEKDIGKAITILRKSYQLSISAFSMRTGYSRVHISEVESGKRKATDELISVIRNVFHLDSNWPF” reads -0.517.

On to “HMLELDRTNLLGVFGSKSNPYALIMLSNGEMLKLSIGDQFLGWRVYAIDQTTVHVQNGKNQEILRIP”, for which the “soluble fraction (log2)” value is -0.772. Regarding “HMLELLSMEDIQRTRVGDLIATVRQVDRQHALVLDRDPETGKPAVRGIFSLSQISLRLGLNI”, the “soluble fraction (log2)” value is -0.733.
